According to the nanobody polyreactivity screen of Harvey et al. (2022):

Experiment: yeast display, Sf9 membrane polyspecificity reagent, FACS + sequencing; frameworks hold sequencing errors
How it was run: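 Sorting gates, low and high (top ~1%), were placed on anti-HA fluorescence to track expression and on streptavidin fluorescence to track reagent binding. A clone's polyreactivity label is taken from the gate it came out of. The reagent was 10% biotinylated, detergent-solubilized Sf9 membrane, applied for 1 hour at 4 °C to galactose-induced yeast display cells.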

Row | Sequence | polyreactivity (PSR sort gate)
1 | QVQLVESGGGLVQAGGSLRLSCAASGSTFGYYTMGWYRQAPGKERQLVAAISWSGGSTYYADSVKGRFTISRDNAKNTVYLLMNSLKPEDTAVYYCARGSQYRLWRTPHYYWGQGTQVTVSS | high polyreactivity
2 | HVQLVESGGGLVQAGGSLRLSCAASGIIFYYYTMGWYRPGPRKERELLAWSGGNTYYADSVKGRFTISRDNAKNTVYLQMNSLKPEDTAVYYCNALAIWSDDWDHWISYADDYWGQGTQVTVSS | low polyreactivity
3 | QVQLVESGGGLVQAGGSLRLSSAASGSIFSAYAMGWYRQAPGKERELVATISRSGASTYYADSVKGRFTISRDNAKNTVYLQMNSLKPEDTAVYYCAARYYSPAYRLGGVDYWGQGTQVTVSS | high polyreactivity
4 | QVQLVESGGGLVQAGGSLRLSCASSGFTSRYVMGWYRQAPGKEMELVASISRSGGSTYYADSVKGRFTISRDNAKNTVYLQMNSLKPEDTAVYYCAADATPTDMDYLGQGTQVTVSS | high polyreactivity
5 | QVQLVESGGGLVQAGGSLRLSCAASGGTFVTYAMGWYRQAPGKERELVAAITTGGSTYYADSVKGRFTISRDNAKNSVYLQMISLKPEDTAVYYCAAVYTGSGKRYYKGYYWGQGTQVTVSS | low polyreactivity
6 | QVQLGESGGGLVQAGGSLRLSCAASGNTFVSNAMGWYRQAPGKERELVAAINSGGSTNYADSVKGRFTISRDNAKNTVYLQMNSLKPEDTAVYYCNKDYDYPQRYWMDYWGQGTQVTVSS | low polyreactivity
7 | QVQLVESGGGLVQAGGSLRLSCAASRSIFGIYTMGWSRQEPGKERELVAAIKSGGSTNYADSVKGRFTITRDNAKNTVYLQMNSKKPEDTAVYYCNAYIHPPGPRVYSREYDYWGQGTQVTVSS | low polyreactivity
8 | QVQLVESGGGLVQAGGSLRLSCAASGRTFRYYAMGWYRQAPGKESELVAAIRTRGASTYYADSVKGRFTISRDNAKNTVYLQMNSLKPEDTAVYYCAKRAHFSSARHVYYIYDYWGQGTQVTVSS | low polyreactivity
9 | QVQLVESGGGLVQAGGSLRLSCAASGSTFPFNAMGWYRQAPGKERELVAAITTSAGSTYYADSVKGRFTISRDNAKKTVYLQMNSLKPEDTAVYYCAARYVPPWGRRYYYWGQGTQVTVSS | high polyreactivity
10 | QVQLVESGGGLVQAGGSLRLSCAASGFIFRYNAMGWYRQAPGKERELVAVITSGGRTYYADSVKGRFTISRDNAKNTVYLQMNSLKPEDTAVYYCNADSRHRRNYDYWGQGTQVTVSS | high polyreactivity
11 | QDQLVESGGGLVQAGGSLSLSCAASGSIIPNYAMGWYRQAPGKERELVAAISSSGGRTYYADSVKGRFTISRDNAKNTVYLQMNCLKPEDTAVYYCAADTYTSAQHEKYDYWGQGTQVTVSS | low polyreactivity
12 | QVQLVESGGGLVQAGGSLRLSCAASGRIFAWYAMGWYRQSPGKESELVAAISDSGGSTYYADSVKGRFTISRDNAKNTVYLQMNSLKPEDTAVYYCAADQVVYSAYWSDHYDYWGQGTQVTVSS | low polyreactivity
13 | QLQLVESGGGLVQAGGSLRLSCAASGRTFDDYAMGWYRQAPGKERELVAAISGSAGSTYYADSVKGRFTISRDNAKNTVYLQMNSLKPEDTAVYYCARGYGTYPLYYQYLAYYYWGQGTQVTVSS | low polyreactivity
14 | QVQLVESGGGLVQPGGSLRLSCAASGSIVKSYAMGWYRQAPGKERELVAAITWRSGRTYYADSVKGRFTISRDNAKNTVYLQMNSLKPEDTAVYYCAADDTSYYIYSYDYWGQGTQVTVSS | low polyreactivity
15 | QVQLVESGGGIVQSGGSLGLSCAASGYTFRTNVMGWYRQAPGKERELVATINWRGGSTYYADSVKGRFTISRDTAKNTVYLQMNSLKPEDTAVYYCAKTYSYYRTMDYWGQGTQVTGSS | low polyreactivity
16 | QVQLVESGGGLVQAGGRLRLSCAASGFPFAVYAMGWYRQAPGKERELVATITSAGSTYYADSVKGRFTISRDTAKNTVYLQRNSLKPEDNEVYYCAAAGTYYRGDYGYWGQGTQVTVSS | low polyreactivity
17 | QVQLVESGGGLVQAGGSLRLSCDASGSIFAYYAMRWYRPAPGKERELVAAISSRGGNTYYADSVKGRFTISRDYAKNTVYLQMNSLKPEDNAVYYCAAYSASYTFDYWGQGTQVTVSS | high polyreactivity
18 | QVQLVESGGGLVQAGGSLRLSCAASGRIFDYYYMGWYRQAPGKERELVAAISNGGSTYYADSVKGRFTISRDNAKNTVYLQMNSLKPEDTAVYYGAAVISFSGYDYYYWGQGTQVTVSS | high polyreactivity
19 | QVQLVESGGCLVQAGGSLRLSCAASGRTFRYYAMGWYRQAPGRERELVAAIRRAGSTTYADSVKGRFTISRDNAKNTVYLQMNSLKPEDTAVYYCIARRYGYGYALDYWGQGTQVTVSS | high polyreactivity
20 | QVQLVESGGGLVQAGGSLRLSCAASGRILGRYAMGWYRQEPGKERELVASIRGGGSTNYADSVKGRFTISRDNAKNTVYLQMNSLKPEDTAVYYCAKDYDVRVYEYNYWGQGTQVTVSS | low polyreactivity
21 | QVQLVESGGGLVQAGGSHRLSCAASGRIFEDYAMGWYRQAPGKERELVARISSGDSTNYADSVNGRFTLSRDNAKNTVYLQMNSLKPEDTAVYYCAAEGGVQEFDYWGQGTQVTVSS | low polyreactivity
22 | QVQLVESGGGLVQAGGSLRLSCAASGYIYIVYSMGWYRQAPVKERELVAAISSGGITDYADSVKGRFTISRDNAKNTVYLQMNSLKPEDTAVYYWGQGTQVTVSA | low polyreactivity

Row | Sequence | polyreactivity (PSR sort gate)
23 | QVQLVESGGGLVQAGGSRRLSCAASGSTFARYPMGWYRQAPGKERELVATITRGGSTNYADSVKGRFTISRDNAKNTVYLQMNSLKPEDTAVYYCNARCGRSPYGYGDYYWGQGTQVTVSS | high polyreactivity
24 | QDQLVESGGGLVQAGGSLRLSCAASGFIFENYTLGWYRLAPGKERELVAAITSSGGSTYYADSVKGRFTISRDNAKNTVYLPLNSLNPDVTAVYYCNKRWFRDYDYWGQGTQVTVSS | high polyreactivity
25 | QVQLVESGGGLVQAGGSLRLSCAASGRIYPYYDMGWYRQAPGKERELVAAITSGTGTYYADSGKGRVTLSRDNAKTTVYFQMYSLKPEDTAVYYCNARRYLRGYWGQGTQVTLSS | low polyreactivity
26 | QVQLVESGGGLVQAGGSLRLSCAASGRTFPKYAMGWYRQAPGKERELVAAITWRASRTYYADSVKGRFTISRDYAKITVYLQMNSLKPEDTAVYYCAAKGVGQAPKRDYWGQGTQVNVSS | high polyreactivity
27 | QVQLVESGGGLVQAGGSLRLSCAASGRIFRGNAMGWYRQAPGKERELVATITKRGGSTYYADSVKGRFTISRDNAKNTVYLQMNSLKPEDTAVYYCNTRTYGYLTQKYDYWGQGTQVTVSS | high polyreactivity
28 | QVQLVESGRGLVQAGGSLRLSCAASGSTFFDYAMGWYRQAPGKERELVATISWNGGSTYYADSVKGRFTISRDTATNTVYLQMNSLKPEDTAVYYCAKDRGYRYLGDYWGQGTQVSVSS | low polyreactivity
29 | QVQLVESGGGLVQAGGSLRLSCSASGSIFRVYGMGWYRQAPGKERELVAAITWSGGSTYYADSVKGRFTISRDNAQNTVYLQMNSLKPEDTAVYYCAARARPRYYRQPYDYLGQGTQVTVSS | high polyreactivity
30 | QVQLVESGGGLVQAGGSLRLSCAASGSTINHYAMGWYRQAPGKERELVAAISWSGGSTRYADSVKGRFTISRDNAKNTVYLQMNSLKPEDTAVYYCAARGYGKYYYWGQGTQVTVSS | high polyreactivity
31 | QVQLVESGGGLVQAGGSLRLSCAASGITFYGYAMGWYRQAPGQERELVAAISSRGGSTYYADSVKGRFTISRDNAKNTVYLQMNSLKPEDTAVYNCAAVYYTGEYYYWGQGTQVTVSS | high polyreactivity
32 | QVQLVESGGGLVQAGGSLRLSCAASGRTFFKYAMGWYRQEPGKERELVASISRTGGGSTYYADSVKGRFTISRDNAKNTVYLQMNSLQPEDTAVYYCNKYTYRGRTGEFNYWGQGTQVNVSS | high polyreactivity
33 | QVQLVESGGCLVQAGGSLRLSCAASGYTFRYNAMGWYRQAHGKERELVATITRGGSTNYADSVKGRFTISRDNEKNTVYLLMYSLKPEDPAVYYCNKEAAPLGFVPSYYGRDYWRQGTQVTVSS | low polyreactivity
34 | QVQLVESGGGLVQAGGSLRLSCAASGSIFVYYAMGWYRQAPGKERELVAAISSTGGRTYYADSVKGRFTISRDNAKNTVYLQMNSLNPEDTAVYYCAKDYGSYFIFLSYPRSRYDYWGQGTQVTVSS | low polyreactivity
35 | QVQLVESGGGLVQAGGSLRLSCAASGFTFRYYVMGWYRQSPGKERELVAAISWSGGSTYYADSVKGRFTISRDNAKNTVYLQMNSLKPEDTAVYYCNAASLSKSDYWGQGTQVTVSS | high polyreactivity
36 | QVQLVESGGGLVQAGGSLRLSCAASGIIFTRYAMGWYRQAPGKERELVAAITRNGVSTYYADSVKGRFTISRDNAKNSVYLQMNSLKPEDTAVYYCNTYVLRRYAYGYWGQGTQVTVSS | high polyreactivity
37 | QVQLVESGGGLVQAGGSLRLSCAASGRTFKFYAMGWDRQAPGSDRELVAAISSSGGRTYYADSVKGRFTISRDNAKNTVYLQMNSLKPEDTAVYYCAAVPGSKFVQKDDYWGQGTQVTVSS | low polyreactivity
38 | QVQLVESGGGLVQAGGSLRLSCAASGFIFGSYAMGWYRQAPGKERELVAAINWSGGSTYYADSVKGRFTISRDNAKNTVYLQMNSLKPDDTAVYYCAADRTYYSFLYYPWVDFDYWGQGTQVTVSS | high polyreactivity
39 | QVQLVESGGGLVQAGGSLRLSCAASGFIFYVYAMGWYRQAPGKERELVAAISADGGITYYADSVKGRFTISRDNAKNSVYFQMNSLKPEDTAVYYCNTLGDQDAYAGFRLDYWGQGTQVTVSS | low polyreactivity
40 | QVQLVESGGGLVQAGGSLRLSCAATGSIFYHYAMGWYRQAPGKERELVAAISGSGGSTYYADSVKGRFTISRDNAKNTVYLQMNSLKPEDTAVYYCAADTSRYHYSRYFFDSDYWGQGTQVTVSS | low polyreactivity
41 | QVQLVESGGGLVQAGGSLRLSCAASGRTFLPNAMGWYRQAPGKERELVAVITSGGSTNYADSVKGRFTISRDNAKNTVYLQMNSLKQEDTAVYYCAARRWSSSQGHWGKSAGYGYWGQGTQVTVSS | low polyreactivity
42 | QVQLVESGGVLVQAGGSLRLSCAAYGSTLRRYAMGWYRQAPGKERELVAAISYSGGSTYYADSVKGRFTISRDNAKNTVYLQMNSLKPEDTAVYYCAVVTRKGLYDYWGQGTQVTVSS | high polyreactivity
43 | QVQLVESGGGLVQAGGSLRLSCAASGLTLRNYAMGWYRQAPGKERELVAAITTGGGRTYYADSVKGRFTISRDNAKNTVYFQMNSVKPEDTAVYYCAADAPREYVDHYKYDDDYWGQGTQVTVSS | low polyreactivity
